From article PMC10397247

What was measured:
P7 = molecular target: T1, P7; assay: two-hybrid library CC1;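 also: natural log of median RNA to DNA barcode read ratio; higher means stronger binding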
T1 chain: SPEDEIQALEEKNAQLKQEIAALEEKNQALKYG

P7mS = molecular target: T2, P7mS; assay: two-hybrid library CC1; settings: mean of both orientations;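 also: natural log of median RNA to DNA barcode read ratio; higher means stronger binding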
T2 chain: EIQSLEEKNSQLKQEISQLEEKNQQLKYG

P8 = molecular target: T3, P8; assay: two-hybrid library CC1; settings: mean of both orientations;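 also: natural log of median RNA to DNA barcode read ratio; higher means stronger binding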
T3 chain: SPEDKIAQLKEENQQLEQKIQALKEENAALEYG

P8mS = molecular target: T4, P8mS; assay: two-hybrid library CC1; settings: mean of both orientations;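 also: natural log of median RNA to DNA barcode read ratio; higher means stronger binding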
T4 chain: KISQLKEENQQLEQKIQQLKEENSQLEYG

P9 = molecular target: T5, P9; assay: two-hybrid library CC1; settings: mean of both orientations;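 also: natural log of median RNA to DNA barcode read ratio; higher means stronger binding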
T5 chain: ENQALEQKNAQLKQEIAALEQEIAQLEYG

4H2277-AA = molecular target: T6, 4H2277-AA; assay: two-hybrid library CCmax;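 also: natural log of median RNA to DNA barcode read ratio; higher means stronger binding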
T6 chain: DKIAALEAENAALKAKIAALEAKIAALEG

4H234-AA = molecular target: T7, 4H234-AA; assay: two-hybrid library CCmax; settings: mean of both orientations
T7 chain: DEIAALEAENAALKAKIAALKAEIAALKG

4H2354-AA = molecular target: T8, 4H2354-AA; assay: two-hybrid library CCmax; settings: mean of both orientations
T8 chain: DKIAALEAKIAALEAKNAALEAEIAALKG

4H2393-AA = molecular target: T9, 4H2393-AA; assay: two-hybrid library CCmax
T9 chain: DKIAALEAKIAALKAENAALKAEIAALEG

4H2466-AA = molecular target: T10, 4H2466-AA; assay: two-hybrid library CCmax; settings: mean of both orientations
T10 chain: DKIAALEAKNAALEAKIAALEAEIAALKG

4H2505-AA = molecular target: T11, 4H2505-AA; assay: two-hybrid library CCmax; settings: mean of both orientations
T11 chain: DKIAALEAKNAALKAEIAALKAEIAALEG

4H2575-AA = molecular target: T12, 4H2575-AA; assay: two-hybrid library CCmax; settings: mean of both orientations
T12 chain: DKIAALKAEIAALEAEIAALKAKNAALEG

4H2617-AA = molecular target: T13, 4H2617-AA; assay: two-hybrid library CCmax; settings: mean of both orientations
T13 chain: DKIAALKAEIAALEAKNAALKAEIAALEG

4H2642-AA = molecular target: T14, 4H2642-AA; assay: two-hybrid library CCmax; settings: mean of both orientations
T14 chain: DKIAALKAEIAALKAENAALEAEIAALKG

4H2729-AA = molecular target: T15, 4H2729-AA; assay: two-hybrid library CCmax; settings: mean of both orientations
T15 chain: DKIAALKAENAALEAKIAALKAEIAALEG

4H2754-AA = molecular target: T16, 4H2754-AA; assay: two-hybrid library CCmax; settings: mean of both orientations
T16 chain: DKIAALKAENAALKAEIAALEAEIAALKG

4H2837-AA = molecular target: T17, 4H2837-AA; assay: two-hybrid library CCmax; settings: mean of both orientations
T17 chain: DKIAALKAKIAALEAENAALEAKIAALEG

4H2883-AA = molecular target: T18, 4H2883-AA; assay: two-hybrid library CCmax; settings: mean of both orientations
T18 chain: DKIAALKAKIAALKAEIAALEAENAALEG

4H2944-AA = molecular target: T19, 4H2944-AA; assay: two-hybrid library CCmax; settings: mean of both orientations
T19 chain: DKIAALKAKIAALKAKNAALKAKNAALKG

4H2949-AA = molecular target: T20, 4H2949-AA; assay: two-hybrid library CCmax; settings: mean of both orientations
T20 chain: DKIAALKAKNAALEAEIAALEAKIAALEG

4H3112-AA = molecular target: T21, 4H3112-AA; assay: two-hybrid library CCmax; settings: mean of both orientations
T21 chain: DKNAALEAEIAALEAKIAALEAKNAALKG

4H317-AA = molecular target: T22, 4H317-AA; assay: two-hybrid library CCmax; settings: mean of both orientations
T22 chain: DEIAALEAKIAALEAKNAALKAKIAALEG

4H3343-AA = molecular target: T23, 4H3343-AA; assay: two-hybrid library CCmax; settings: mean of both orientations
T23 chain: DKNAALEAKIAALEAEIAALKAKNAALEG

4H335-AA = molecular target: T24, 4H335-AA; assay: two-hybrid library CCmax; settings: mean of both orientations
T24 chain: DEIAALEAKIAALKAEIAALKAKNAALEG

4H342-AA = molecular target: T25, 4H342-AA; assay: two-hybrid library CCmax; settings: mean of both orientations
T25 chain: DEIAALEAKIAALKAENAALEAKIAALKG

4H3427-AA = molecular target: T26, 4H3427-AA; assay: two-hybrid library CCmax; settings: mean of both orientations
T26 chain: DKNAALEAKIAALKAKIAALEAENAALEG

4H3606-AA = molecular target: T27, 4H3606-AA; assay: two-hybrid library CCmax; settings: mean of both orientations
T27 chain: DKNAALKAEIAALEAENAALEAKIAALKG

4H3627-AA = molecular target: T28, 4H3627-AA; assay: two-hybrid library CCmax; settings: mean of both orientations
T28 chain: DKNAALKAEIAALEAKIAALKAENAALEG

4H3655-AA = molecular target: T29, 4H3655-AA; assay: two-hybrid library CCmax; settings: mean of both orientations
T29 chain: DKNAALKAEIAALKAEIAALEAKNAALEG

4H3844-AA = molecular target: T30, 4H3844-AA; assay: two-hybrid library CCmax; settings: mean of both orientations
T30 chain: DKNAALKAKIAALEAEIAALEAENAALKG

4H3921-AA = molecular target: T31, 4H3921-AA; assay: two-hybrid library CCmax; settings: mean of both orientations
T31 chain: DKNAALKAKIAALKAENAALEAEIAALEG

4H429-AA = molecular target: T32, 4H429-AA; assay: two-hybrid library CCmax; settings: mean of both orientations
T32 chain: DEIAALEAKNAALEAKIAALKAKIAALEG

4H454-AA = molecular target: T33, 4H454-AA; assay: two-hybrid library CCmax; settings: mean of both orientations
T33 chain: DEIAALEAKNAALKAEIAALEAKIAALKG

4H48-AA = molecular target: T34, 4H48-AA; assay: two-hybrid library CCmax; settings: mean of both orientations
T34 chain: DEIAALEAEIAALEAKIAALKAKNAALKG

4H566-AA = molecular target: T35, 4H566-AA; assay: two-hybrid library CCmax; settings: mean of both orientations
T35 chain: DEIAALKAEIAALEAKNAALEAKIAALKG

4H605-AA = molecular target: T36, 4H605-AA; assay: two-hybrid library CCmax; settings: mean of both orientations
T36 chain: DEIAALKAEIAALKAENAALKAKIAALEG

4H678-AA = molecular target: T37, 4H678-AA; assay: two-hybrid library CCmax; settings: mean of both orientations
T37 chain: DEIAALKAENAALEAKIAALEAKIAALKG

4H717-AA = molecular target: T38, 4H717-AA; assay: two-hybrid library CCmax; settings: mean of both orientations
T38 chain: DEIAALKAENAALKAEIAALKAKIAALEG

4H780-AA = molecular target: T39, 4H780-AA; assay: two-hybrid library CCmax
T39 chain: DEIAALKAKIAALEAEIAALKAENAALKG

4H794-AA = molecular target: T40, 4H794-AA; assay: two-hybrid library CCmax; settings: mean of both orientations
T40 chain: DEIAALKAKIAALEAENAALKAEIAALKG

4H881-AA = molecular target: T41, 4H881-AA; assay: two-hybrid library CCmax; settings: mean of both orientations
T41 chain: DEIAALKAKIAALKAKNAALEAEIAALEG

4H906-AA = molecular target: T42, 4H906-AA; assay: two-hybrid library CCmax; settings: mean of both orientations
T42 chain: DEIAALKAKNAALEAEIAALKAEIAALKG

4H993-AA = molecular target: T43, 4H993-AA; assay: two-hybrid library CCmax; settings: mean of both orientations
T43 chain: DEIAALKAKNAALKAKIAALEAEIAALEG

4H348-bN = molecular target: T44, 4H348-bN; assay: two-hybrid library CCNG1
T44 chain: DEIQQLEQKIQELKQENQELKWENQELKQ

4H40-bN = molecular target: T45, 4H40-bN; assay: two-hybrid library CCNG1
T45 chain: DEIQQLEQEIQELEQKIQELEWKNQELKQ

4H477-bN = molecular target: T46, 4H477-bN; assay: two-hybrid library CCNG1
T46 chain: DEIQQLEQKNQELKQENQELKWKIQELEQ

4H492-bN = molecular target: T47, 4H492-bN; assay: two-hybrid library CCNG1
T47 chain: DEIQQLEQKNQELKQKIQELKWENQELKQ

4H741-bN = molecular target: T48, 4H741-bN; assay: two-hybrid library CCNG1
T48 chain: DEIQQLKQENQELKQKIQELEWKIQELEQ

4H754-bH = molecular target: T49, 4H754-bH; assay: two-hybrid library CCNG1
T49 chain: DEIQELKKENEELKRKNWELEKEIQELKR

B1: P7 (peptide)
chain: T1 chain
- interaction score (P7): -2.29
- interaction score (P7mS): -2.52
- interaction score (P8): 0.391
- interaction score (P8mS): 0.223
- interaction score (P9): -2.07

B2: 4H2277-AA (peptide)
chain: DKIAALEAENAALKAKIAALEAKIAALEG
- interaction score (4H2277-AA): 1.95
- interaction score (4H234-AA): -0.0407
- interaction score (4H2354-AA): -1.26
- interaction score (4H2393-AA): -1.39
- interaction score (4H2466-AA): -1.07
- interaction score (4H2505-AA): -0.635
- interaction score (4H2575-AA): -1.59
- interaction score (4H2617-AA): -1.68
- interaction score (4H2642-AA): -0.59
- interaction score (4H2729-AA): 0.856
- interaction score (4H2754-AA): 0.512
- interaction score (4H2837-AA): -1.08
- interaction score (4H2883-AA): -1.6
- interaction score (4H2944-AA): -1.56
- interaction score (4H2949-AA): 0.749
- interaction score (4H3112-AA): -1.43
- interaction score (4H317-AA): -1.02
- interaction score (4H3343-AA): -1.26
- interaction score (4H335-AA): -1.2
- interaction score (4H342-AA): -0.907
- interaction score (4H3427-AA): -1.51
- interaction score (4H3606-AA): -1.85
- interaction score (4H3627-AA): -1.28
- interaction score (4H3655-AA): -1.32
- interaction score (4H3844-AA): -1.39
- interaction score (4H3921-AA): -1.56
- interaction score (4H429-AA): -0.713
- interaction score (4H454-AA): 1.29
- interaction score (4H48-AA): -1.36
- interaction score (4H566-AA): -0.827
- interaction score (4H605-AA): -1.38
- interaction score (4H678-AA): 0.351
- interaction score (4H717-AA): -0.927
- interaction score (4H780-AA): -1.36
- interaction score (4H794-AA): -1.24
- interaction score (4H881-AA): -1.05
- interaction score (4H906-AA): -1.51
- interaction score (4H993-AA): 0.398

B3: 4H348-bN (peptide)
chain: DEIQQLEQKIQELKQENQELKWENQELKQ
- interaction score (4H348-bN): -1.05
- interaction score (4H40-bN): -1
- interaction score (4H477-bN): -1.82
- interaction score (4H492-bN): 0.214
- interaction score (4H741-bN): -0.495
- interaction score (4H754-bH): -0.689
